Assay results: the supplement of paper PMC11246515
± gives the standard deviation of the averaged measurements.

Assay: total protein half-life in vivo (active degradation + dilution); higher = more stable protein
[1] = E. coli NCM3722 delta-clpP delta-lon delta-hslV, growth: N-lim chemostat, doubling time 6 h
[2] = E. coli NCM3722 delta-clpP, growth: N-lim chemostat, doubling time 6 h
[3] = E. coli NCM3722 delta-hslV, growth: N-lim chemostat, doubling time 6 h
[4] = E. coli NCM3722 delta-lon, growth: N-lim chemostat, doubling time 6 h
[5] = E. coli NCM3722 delta-smpB, growth: N-lim chemostat, doubling time 6 h
[6] = wild type E. coli NCM3722, growth: C-lim chemostat, doubling time 3 h
[7] = wild type E. coli NCM3722, growth: C-lim chemostat, doubling time 6 h
[8] = wild type E. coli NCM3722, growth: N-lim chemostat, doubling time 6 h
[9] = wild type E. coli NCM3722, growth: N-lim chemostat, doubling time 12 h
[10] = wild type E. coli NCM3722, growth: P-lim chemostat, doubling time 6 h
[11] = wild type E. coli NCM3722, growth: P-lim chemostat, doubling time 12 h
[12] = wild type E. coli NCM3722, growth: C-lim chemostat, doubling time 12 h

Row | Sequence | total protein half-life in vivo [1] [h] | total protein half-life in vivo [2] [h] | total protein half-life in vivo [3] [h] | total protein half-life in vivo [4] [h] | total protein half-life in vivo [5] [h] | total protein half-life in vivo [6] [h] | total protein half-life in vivo [7] [h] | total protein half-life in vivo [8] [h] | total protein half-life in vivo [9] [h] | total protein half-life in vivo [10] [h] | total protein half-life in vivo [11] [h] | total protein half-life in vivo [12] [h]
1 | MDSQRNLLVIALLFVSFMIWQAWEQDKNPQPQAQQTTQTTTTAAGSAADQGVPASGQGKLISVKTDVLDLTINTRGGDVEQALLPAYPKELNSTQPFQLLETSPQFIYQAQSGLTGRDGPDNPANGPRPLYNVEKDAYVLAEGQNELQVPMTYTDAAGNTFTKTFVLKRGDYAVNVNYNVQNAGEKPLEISSFGQLKQSITLPPHLDTGSSNFALHTFRGAAYSTPDEKYEKYKFDTIADNENLNISSKGGWVAMLQQYFATAWIPHNDGTNNFYTANLGNGIAAIGYKSQPVLVQPGQTGAMNSTLWVGPEIQDKMAAVAPHLDLTVDYGWLWFISQPLFKLLKWIHSFVGNWGFSIIIITFIVRGIMYPLTKAQYTSMAKMRMLQPKIQAMRERLGDDKQRISQEMMALYKAEKVNPLGGCFPLLIQMPIFLALYYMLMGSVELRQAPFALWIHDLSAQDPYYILPILMGVTMFFIQKMSPTTVTDPMQQKIMTFMPVIFTVFFLWFPSGLVLYYIVSNLVTIIQQQLIYRGLEKRGLHSREKKKS | 6.9 ± 1.3 | 6.01 ± 0.51 | 6.03 ± 0.043 | 6.29 ± 0.36 | 6.08 ± 0.42 | 3.2 ± 0.74 | 6.37 ± 1.8 | 6.08 ± 0.64 | 12.2 ± 0.55 | 6.66 ± 0.93 | 12.6 ± 0.7 | 
2 | MDTSLAEEVQQTMATLAPNRFFFMSPYRSFTTSGCFARFDEPAVNGDSPDSPFQQKLAALFADAKAQGIKNPVMVGAIPFDPRQPSSLYIPESWQSFSRQEKQASARRFTRSQSLNVVERQAIPEQTTFEQMVARAAALTATPQVDKVVLSRLIDITTDAAIDSGVLLERLIAQNPVSYNFHVPLADGGVLLGASPELLLRKDGERFSSIPLAGSARRQPDEVLDREAGNRLLASEKDRHEHELVTQAMKEVLRERSSELHVPSSPQLITTPTLWHLATPFEGKANSQENALTLACLLHPTPALSGFPHQAATQVIAELEPFDRELFGGIVGWCDSEGNGEWVVTIRCAKLRENQVRLFAGAGIVPASSPLGEWRETGVKLSTMLNVFGLH [P0AEJ2] |  |  |  |  |  | 2.43 | 2.54 |  |  |  |  | 
3 | MDVTAKYELIGLMAYPIRHSLSPEMQNKALEKAGLPFTYMAFEVDNDSFPGAIEGLKALKMRGTGVSMPNKQLACEYVDELTPAAKLVGAINTIVNDDGYLRGYNTDGTGHIRAIKESGFDIKGKTMVLLGAGGASTAIGAQGAIEGLKEIKLFNRRDEFFDKALAFAQRVNENTDCVVTVTDLADQQAFAEALASADILTNGTKVGMKPLENESLVNDISLLHPGLLVTECVYNPHMTKLLQQAQQAGCKTIDGYGMLLWQGAEQFTLWTGKDFPLEYVKQVMGFGA [P0A6D5] | 4.77 |  |  |  |  |  |  |  |  |  |  | 
4 | MDWLLDVFATWLYGLKVIAITLAVIMFISGLDDFFIDVVYWVRRIKRKLSVYRRYPRMSYRELYKPDEKPLAIMVPAWNETGVIGNMAELAATTLDYENYHIFVGTYPNDPDTQRDVDEVCARFPNVHKVVCARPGPTSKADCLNNVLDAITQFERSANFAFAGFILHDAEDVISPMELRLFNYLVERKDLIQIPVYPFEREWTHFTSMTYIDEFSELHGKDVPVREALAGQVPSAGVGTCFSRRAVTALLADGDGIAFDVQSLTEDYDIGFRLKEKGMTEIFVRFPVVDEAKEREQRKFLQHARTSNMICVREYFPDTFSTAVRQKSRWIIGIVFQGFKTHKWTSSLTLNYFLWRDRKGAISNFVSFLAMLVMIQLLLLLAYESLWPDAWHFLSIFSGSAWLMTLLWLNFGLMVNRIVQRVIFVTGYYGLTQGLLSVLRLFWGNLINFMANWRALKQVLQHGDPRRVAWDKTTHDFPSVTGDTRSLRPLGQILLENQVITEEQLDTALRNRVEGLRLGGSMLMQGLISAEQLAQALAEQNGVAWESIDAWQIPSSLIAEMPASVALHYAVLPLRLENDELIVGSEDGIDPVSLAALTRKVGRKVRYVIVLRGQIVTGLRHWYARRRGHDPRAMLYNAVQHQWLTEQQAGEIWRQYVPHQFLFAEILTTLGHINRSAINVLLLRHERSSLPLGKFLVTEGVISQETLDRVLTIQRELQVSMQSLLLKAGLNTEQVAQLESENEGE [P0AFA5] | 4.66 ± 1.7 |  |  |  |  |  |  |  | 9.6 ± 6.5 |  |  | 
5 | MDYVCSVVFICQSFDLIINRRVISFKKNSLFIVSDKIRRELPVCPSKLRIVDIDKKTCLSFFIDVNNELPGKFTLDKNGYIAEEEPPLSLVFSLFEGIKIADSHSLWLKERLCISLLAMFKKRESVNSFILTNINTFTCKITGIISFNIERQWHLKDIAELIYTSESLIKKRLRDEGTSFTEILRDTRMRYAKKLITSNSYSINVVAQKCGYNSTSYFICAFKDYYGVTPSHYFEKIIGVTDGINKTID | 5.39 ± 1.1 | 3.62 ± 0.73 | 3.65 ± 0.5 |  | 3.18 ± 0.42 | 2.27 ± 0.2 | 4.11 ± 0.32 | 2.95 | 5.67 ± 0.64 | 3.89 ± 0.38 | 7.61 ± 2.4 | 6.14
6 | MEFAFYICGLIAILATLRVITHTNPVHALLYLIISLLAISGVFFSLGAYFAGALEIIVYAGAIMVLFVFVVMMLNLGGSEIEQERQWLKPQVWIGPAILSAIMLVVIVYAILGVNDQGIDGTPISAKAVGITLFGPYVLAVELASMLLLAGLVVAFHVGREERAGEVLSNRKDDSAKRKTEEHA [P0AFE0] |  |  | 4.21 |  | 6.02 |  | 6.7 | 6.07 | 11.5 | 6.02 | 13.8 ± 2.9 | 
7 | MEFFKKTALAALVMGFSGAALALPNITILATGGTIAGGGDSATKSNYTVGKVGVENLVNAVPQLKDIANVKGEQVVNIGSQDMNDNVWLTLAKKINTDCDKTDGFVITHGTDTMEETAYFLDLTVKCDKPVVMVGAMRPSTSMSADGPFNLYNAVVTAADKASANRGVLVVMNDTVLDGRDVTKTNTTDVATFKSVNYGPLGYIHNGKIDYQRTPARKHTSDTPFDVSKLNELPKVGIVYNYANASDLPAKALVDAGYDGIVSAGVGNGNLYKSVFDTLATAAKTGTAVVRSSRVPTGATTQDAEVDDAKYGFVASGTLNPQKARVLLQLALTQTKDPQQIQQIFNQY |  | 5.6 ± 1.2 | 6.41 ± 0.082 | 5.53 ± 0.3 | 6.23 ± 0.81 |  | 5.38 ± 0.38 | 6.03 ± 0.47 | 12.3 ± 0.7 | 6.54 ± 0.46 | 13 ± 0.46 | > 16
8 | MEHISTTTLIIILIIMVVISAYFSGSETGMMTLNRYRLRHMAKQGNRSAKRVEKLLRKPDRLISLVLIGNNLVNILASALGTIVGMRLYGDAGVAIATGVLTFVVLVFAEVLPKTIAALYPEKVAYPSSFLLAPLQILMMPLVWLLNAITRMLMRMMGIKTDIVVSGSLSKEELRTIVHESRSQISRRNQDMLLSVLDLEKMTVDDIMVPRSEIIGIDINDDWKSILRQLSHSPHGRIVLYRDSLDDAISMLRVREAWRLMSEKKEFTKETMLRAADEIYFVPEGTPLSTQLVKFQRNKKKVGLVVNEYGDIQGLVTVEDILEEIVGDFTTSMSPTLAEEVTPQNDGSVIIDGTANVREINKAFNWHLPEDDARTVNGVILEALEEIPVAGTRVRIGEYDIDILDVQDNMIKQVKVFPVKPLRESVAE | 6.45 ± 0.94 | 6.26 ± 0.14 | 6.04 ± 0.47 |  | 5.75 ± 0.47 | 3.02 ± 0.34 | 6.47 ± 1.1 | 6.56 ± 0.41 | 11.6 ± 1 | 6 ± 0.074 | 10.9 ± 1 | 9.51 ± 2.4
